Test results as given in PMC11417767.

Target: FAIM2 (Fas-apoptotic inhibitory molecule 2) (UniProt Q8K097)
Assay: FAIM2 immunoprecipitation, αA-crystallin immunoblot
Settings: reference: wild type; sites T148

Substance: αA-crystallin (HSPB4/CRYAA) (from UniProt P02489) T148A
- binding against the reference: weaker
